Reference: article PMC3644091

Molecular target: IP39, 39-kDa integral membrane protein of Euglena gracilis (Euglena gracilis)
Experiment: cryo-EM structure

IP39, 39-kDa integral membrane protein of Euglena gracilis (natural protein)
stoichiometry N: 3
